Measurements taken from paper PMC7391724 (Scientific Reports, 2020).

Key:
KB tumor xenografts = test: KB tumor xenograft in nu/nu mice; format: in vivo; settings: EC2629 0.3 µmol/kg iv SIW x 2 weeks
Protocol: Four- to eight-week-old female nu/nu mice and rats (Harlan Sprague Dawley, Inc.), were maintained on a standard 12-h light–dark cycle and fed ad libitum with a low-folate chow (Harlan Teklad diet #TD.01013, Madison, WI) for the duration of dosing and 1 week post dosing schedule. Mice and rats were then switched to Teklad Global 18% Rodent diet (Harlan Teklad diet #2018S) during the monitoring phase of the study. Parental KB, KB-CR2000 or KB-PR10 cells (1 × 10^6/100 µL per nu/nu mouse and 5 × 10^6/200 µL per nu/nu rat) were injected into the subcutis of the dorsal medial area. Mice were divided into groups of 5 and rats in groups of 3–4, and freshly prepared test articles were injected through the lateral tail vein under sterile conditions in a volume of 200 μL/20 g of PBS. In mice, intravenous treatments typically initiated on day 7 PTI when KB tumors were approximately 111–168 mm^3 in volume, on day 5 PTI when the KB-PR tumors were about 205–243 mm^3, and on day 6 PTI when the KB-CR tumors were around 98 to 168 mm^3. Treatments in rats were started on day 10 PTI when KB tumors were approximately 412–704 mm^3 in volume.
Animals in the control groups received no treatment. Growth of each subcutaneous tumor was followed by measuring the tumor 3 times per week during treatment and twice per week thereafter, until a maximum volume of 1,500 mm^3 for mice and 15,000 mm^3 for rats were reached. Tumors were measured in two perpendicular directions using Vernier calipers, and their volumes were calculated as V = 0.5 × L × W^2, where L = measurement of longest axis in mm and W = measurement of axis perpendicular to L in mm[16]. As a general measure of gross toxicity, changes in body weights were determined on the same schedule as tumor volume measurements. Survival of animals was monitored daily. Animals that were moribund (or unable to reach food or water) were euthanized by CO2 asphyxiation. Individual tumor response endpoints were reported in terms of tumor volume change. A partial response (PR) was defined as volume regression > 50% but with measurable tumor (> 2 mm^3) remaining at all times. Complete response (CR) was defined as a disappearance of measurable tumor mass (< 2 mm^3) at some point within 90 days after tumor implantation. Cures were defined as CRs without tumor regrowth within the 90-day study time frame.

[1] = Plasma protein binding (ultrafiltration), dog; format: in vitro ADME; settings: 37 °C
Protocol: (§1) Plasma ultrafiltration was used for determination of free and protein bound fractions of EC2629 and EC2491. Samples were extracted and analyzed using fit-for-purpose bioanalytical methods. Briefly, 500 nM EC2629 or EC2491 was spiked into plasma maintained at 37 °C prior to plasma ultrafiltration. Plasma spiked with 500 nM EC2629 or EC2491 was allowed to equilibrate at 37 °C for 30 min prior to processing. Next, 50 μL of plasma was transferred to a clean 1.2 mL plate stored at 2–8 °C for further processing. The remaining plasma sample volumes were transferred to 30 Kd MWCO PES filter to generate plasma ultrafiltrate by centrifugation at 10,000×g for 20 min. After which, 50 μL of each plasma ultrafiltrate was transferred to separate wells in a clean 1.2 mL plate. To all spiked plasma samples, 50 μL of blank plasma ultrafiltrate was added. 50 μL of blank plasma was added to all experimental ultrafiltrate samples. These blank matrix additions normalized the matrix effects for protein binding determination. Samples were then extracted using protein precipitation with a 3:1 ratio of acetonitrile after addition of internal standard. The supernatant transferred to a new plate, evaporated, and reconstituted prior to LC–MS/MS analysis.

[2] = Plasma protein binding (ultrafiltration), human; format: in vitro ADME; settings: 37 °C
Protocol: as §1

[3] = Plasma protein binding (ultrafiltration), across all species; format: in vitro ADME; settings: rat, mouse, dog, human, 37 °C, read-out: plasma protein binding, range across all species
Protocol: as §1

Plasma stability, rat = format: in vitro ADME; settings: 500 nM, 37 °C, 2 h
Protocol: (§2) Whole blood and plasma stability were determined for EC2629 and EC2491 at a concentration of 500 nM. Samples were extracted and analyzed using fit-for-purpose bioanalytical methods. EC2629 or EC2491 was spiked into 1 mL whole blood or plasma maintained at 37 °C for 30 min prior to use . Fifty µl aliquots were then removed at defined timepoints and stored in a 1.2 mL extraction plate prior to analysis. Samples were then extracted using protein precipitation with a 3:1 ratio of acetonitrile after addition of internal standard. The supernatant was then transferred to a new plate, evaporated, and reconstituted prior to LC–MS/MS analysis.

Plasma stability, human = format: in vitro ADME; settings: 500 nM, 37 °C, 2 h
Protocol: as §2

[4] = Whole blood stability, rat; format: in vitro ADME; settings: 37 °C, after two hours, read-out: percent remaining in whole blood
Protocol: as §2

[5] = Whole blood stability, mouse; format: in vitro ADME; settings: 500 nM, 37 °C, two hours, mouse blood
Protocol: as §2

[6] = Whole blood stability, human; format: in vitro ADME; settings: 500 nM, 37 °C, two hours, human blood
Protocol: as §2

Structure (SMILES): C=C1C[C@H]2C=Nc3cc(OCCCCCOc4cc(N)c(C(=O)N5CC(=C)C[C@H]5C5OCCN5C(=O)OCC(C)(C)SSCCC(=O)NCCNC(=O)CCOCCOCCOCCOCCNC(=O)CCN5C(=O)CC(SC[C@H](NC(=O)[C@H](CC(=O)O)NC(=O)[C@H](CC(=O)O)NC(=O)[C@H](CCCNC(=N)N)NC(=O)[C@H](CC(=O)O)NC(=O)CC[C@H](NC(=O)c6ccc(NCc7cnc8nc(N)[nH]c(=O)c8n7)cc6)C(=O)O)C(=O)O)C5=O)cc4OC)c(OC)cc3C(=O)N2C1 (stereo partly drawn) [EC2629]
- body weight change (KB tumor xenografts): did not lose any significant weight
- fraction unbound at 30 min, 500 nM [1]: 0.055
- fraction unbound at 30 min, 500 nM [2]: 0.128
- fraction unbound at 30 min, 500 nM [3]: 0.026 to 0.128
- plasma stability (Plasma stability, rat): stable
- plasma stability (Plasma stability, human): stable
- remaining at 2 h, 500 nM [4]: 75.1%
- whole blood stability [5]: no observed degradation
- whole blood stability [6]: no observed degradation
